# Results as given in US20240182908, “DEOXYRIBONUCLEOSIDE OR DEOXYRIBONUCLEOTIDE HAVING NOVEL ARTIFICIAL BASE APPLICABLE TO SCREENING FOR DNA APTAMER, AND NUCLEIC ACID CONTAINING THE SAME” (TAGCYX BIOTECHNOLOGIES INC., published 2024).
# Where two headings read alike, the source gives them in different places.
# B1: T-00249 (ssDNA)
# DNA: GCGTGTTGAGCTGTATTAGGGTGTCAGGAAGGATTCGGGGGTGGATTTAGGGGGGGATCGTTGTGGAGGCGATACAATCCTGATCCATGAGACGG
# B2: T-00201 (ssDNA)
# DNA: CTCCATTGACTCGGCTTAAACTCCCGTCAGTTATGAATAGGTACGCATGCGGAGTTCGCTACCCCGCCATGGTCATATTGGGGTGCTCCTTGGCT
# B3: T-00204 (ssDNA)
# DNA: CTCCATTGACTCGGCTTAAACTCCCAGGAGGTGGTGGGGGTGGGATTAGGGTTGGGATTGGAGGGGTGTCGGTCATATTGGGGTGCTCCTTGGCT
# B4: T-00246 (ssDNA)
# DNA: GCGTGTTGAGCTGTATTAGGGTGTCAGGTTTTGGTCAGGCGTTCAAACGTAGAGGAATGGACACTTCGGCGATACAATCCTGATCCATGAGACGG
# Legend:
# [1] = target: T1, sIL-6R (soluble interleukin-6 receptor) (UniProt P08887 P08887:20-355); test: EMSA; PBS + 0.005% NP-40, room temperature; shift band lost
# T1 sequence (P08887 20-355, one chain of several): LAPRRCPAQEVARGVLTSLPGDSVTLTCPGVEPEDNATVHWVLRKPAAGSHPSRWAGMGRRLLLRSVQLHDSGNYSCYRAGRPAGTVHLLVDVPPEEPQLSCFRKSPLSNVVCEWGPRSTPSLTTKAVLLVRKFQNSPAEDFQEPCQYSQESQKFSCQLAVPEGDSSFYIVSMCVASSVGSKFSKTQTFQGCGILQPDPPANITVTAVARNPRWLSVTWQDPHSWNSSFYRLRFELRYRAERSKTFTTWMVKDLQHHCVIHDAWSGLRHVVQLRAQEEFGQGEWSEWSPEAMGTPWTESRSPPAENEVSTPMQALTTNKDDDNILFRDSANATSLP
# Method: (§1) Analysis was performed by EMSA on whether the most concentrated candidate sequence binds to the target protein. First, an oligomer corresponding to the candidate sequence (T-00247, see below for the sequence in Table 9) was synthesized with a chemical synthesis method, and purified with an OPC (cartridge). The purified oligomer of the candidate sequence was added into the binding solution to adjust to 0.2 μM, and a folding operation (at 95° C., for 5 minutes→(−0.1° C./sec)→at 25° C.) was performed to form tertiary structures. Thereafter, sIL-6R was diluted with the binding solution to 0.6 μM and mixed with the folded DNA solution, and the resultant was incubated at room temperature for 30 minutes. The sample incubated was subjected to electrophoresis with 8% unmodified polyacrylamide gel to analyze on whether a band indicative of the DNA-protein complex could be detected. DNA was stained with SYBR Gold, and detected with blue light at 470 nm.
# (§2) Subsequently, to determine whether the novel artificial base dDscp is involved in binding to sIL-6R, evaluation was performed with oligomers obtained by substituting dDscp with dDs or dA (dDs-substituted form: T-00248, dA-substituted form: T-00249, see below for the sequences in Table 9). The oligomers were synthesized with a chemical synthesis method, and purified with an OPC (cartridge). […]
# [2] = target: T2, VEGF165 (UniProt P15692-4 P15692-4:27-191); test: EMSA; PBS + 0.005% NP-40, 37 C; shift band lost; details: chain copies: 2
# T2 sequence (P15692 other isoform, or with tags, fused parts or gaps): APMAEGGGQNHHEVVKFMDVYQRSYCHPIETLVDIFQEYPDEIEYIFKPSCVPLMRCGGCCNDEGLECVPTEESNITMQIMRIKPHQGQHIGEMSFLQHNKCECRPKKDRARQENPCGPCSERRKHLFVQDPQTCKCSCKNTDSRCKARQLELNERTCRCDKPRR
# Method: (§3) The purified oligomer of the candidate sequence (T-00199, see below for the sequence in Table 4) was added into the binding solution to adjust to 0.2 μM, and a folding operation (at 95° C. for 5 minutes→(−0.1° C./sec)→at 25° C.) was performed to form tertiary structures. Thereafter, VEGF165 was diluted with the binding solution to 0.2 μM and mixed with the folded DNA solution, and the resultant was incubated at 37° C. for 30 minutes. The sample incubated was subjected to electrophoresis with 10% unmodified polyacrylamide gel to analyze on whether a band indicative of the DNA-protein complex could be detected. DNA was stained with SYBR Gold, and detected with blue light at 470 nm.
# Subsequently, to determine whether the novel artificial base dDsbn is involved in binding to VEGF165, evaluation was performed with oligomers obtained by substituting dDsbn with dDs or dA (dDs-substituted form: T-00200, dA-substituted form: T-00201, see below for the sequences in Table 4). The oligomers were synthesized with a chemical synthesis method, and purified with an OPC (cartridge). For EMSA, a folding operation and reaction were performed as described above, and analysis was performed with unmodified polyacrylamide (in FIG. 2, dDs: two lanes in the center, dA: two lanes in the right).
# [3] = target: T1, sIL-6R (soluble interleukin-6 receptor); test: EMSA; PBS + 0.005% NP-40, room temperature; shift band lost; remark: listed apart in the source
# Method: as §3, with “sequence” for “sequence (T-00199, see below for the sequence in Table 4)”, “sIL-6R” for “VEGF165”, “room temperature” for “37° C.”, “8%” for “10%”, “nm (two lanes in the left in FIG. 4).” for “nm.”
# Subsequently, to determine whether the novel artificial base dDsbn is involved in binding to sIL-6R, evaluation was performed with oligomers obtained by substituting dDsbn with dDs or dA (dDs-substituted form: T-00203, dA-substituted form: T-00204, see below for the sequences in Table 5). The oligomers were synthesized with a chemical synthesis method, and purified with an OPC (cartridge). For EMSA, a folding operation, reaction, and analysis with unmodified polyacrylamide were performed as described above (FIG. 4).
# [4] = target: T2, VEGF165; test: EMSA; PBS + 0.005% NP-40, 37 C; shift band lost; details: chain copies: 2; remark: listed apart in the source
# Method: as §1, with “(T-00244,” for “(T-00247,”, “8)” for “9)”, “VEGF165” for “sIL-6R”, “0.2” for “0.6”, “37° C.” for “room temperature”
# as §2, with “VEGF165,” for “sIL-6R,”, “T-00245,” for “T-00248,”, “T-00246,” for “T-00249,”, “8).” for “9).”
binder,measurement,setting,value
B1,binding result,[1],no binding
B2,binding result,[2],no binding
B3,binding result,[3],no binding
B4,binding result,[4],no binding
